{"source": "patent US11767353B2", "about": "“Trail compositions with reduced immunogenicity” (Theraly Fibrosis, Inc., priority 2020, dated 2023)", "assay": "Formulation stability and freeze-thaw stability", "assay_type": "physicochemical", "source_text": "The stability may be evaluated by measuring the ratio of soluble material to the insoluble material that can be separated by centrifugation. The intact structure of stored material can also be confirmed by IEX-HPLC (SP-NPR) and RP-HPLC (C4).", "data": [{"substance": "TLY012: PEGylated (5 kDa PEG-aldehyde) recombinant human TRAIL (114-281) fused to modified isoleucine zipper (miLZ) at N-terminus; SEQ ID NO:30 trimer", "values": [{"measurement": "resistance to multiple freeze-thaw cycles", "setting": "formulated at 21-22 mg/mi, biological activity and HPLC appearance", "result": "resistant to multiple freeze-thaw cycles"}, {"measurement": "concentration at which formulation was stable", "setting": "in the presence of physiological concentrations of salt, no detectable precipitation, same IEX-HPLC pattern", "result": "up to 25 mg/ml"}]}]}
